Assay results: PMC10080687, “Tautomer-Specific Deacylation and Ω-Loop Flexibility Explain the Carbapenem-Hydrolyzing Broad-Spectrum Activity of the KPC-2 β-Lactamase” (Journal of the American Chemical Society, 2023)

Tests used:
Assay in all cases: purified protein
Conditions in all cases: acylates Ser70
[1] = test system: C[C@@H](O)[C@H]1C(=O)N2C(C(=O)O)=C(S[C@@H]3CN[C@H](C(=O)N(C)C)C3)[C@H](C)[C@H]12; type: biochemical, Klebsiella pneumoniae
[2] = test system: C[C@@H](O)[C@H]1C(=O)N2C(C(=O)O)=C(S[C@@H]3CN[C@H](C(=O)Nc4cccc(C(=O)O)c4)C3)[C@H](C)[C@H]12; type: biochemical, Klebsiella pneumoniae
[3] = test system: CC(=O)OCC1=C(C(=O)O)N2C(=O)[C@@H](NC(=O)Cc3cccs3)[C@H]2SC1
[4] = test system: C[C@@H](O)[C@H]1C(=O)N2C(C(=O)O)=C(SCCN=CN)C[C@H]12

Q: Which results are given for KPC-2 (Klebsiella pneumoniae)?
A: Km [1]: 7.1 µM; kcat [1]: 21 s⁻¹; kcat/Km [1]: 3e+06 M⁻¹ s⁻¹; Km [2]: 8.6 µM; kcat [2]: 8 s⁻¹; kcat/Km [2]: 920000 M⁻¹ s⁻¹; Km [3]: 42 µM; kcat [3]: 110 s⁻¹; Km [4]: 72 µM; kcat [4]: 22 s⁻¹; kcat/Km [4]: 310000 M⁻¹ s⁻¹
